Publication PMC10482006

Target: Kcnj13 (Kir7.1) from D. rerio fused to mCherry (D. rerio)
Assay: mass photometry; OneMP mass photometer (Refeyn), buffer E, sample diluted 1:10 immediately before analysis, mass calibrated with NativeMark; protein solubilised in DDM with CHS

Kcnj13 (Kir7.1) from D. rerio fused to mCherry (natural protein)
stoichiometry N: 4
